The record followed here is patent US20210238260A1 (published 2021).

This experiment addresses T1, Factor VIIIa (recombinant FVIII, Kogenate FS, activated with alpha-thrombin) (UniProt P00451 20-2351).
T1 construct: also called FVIIIa
T1 sequence (looked up): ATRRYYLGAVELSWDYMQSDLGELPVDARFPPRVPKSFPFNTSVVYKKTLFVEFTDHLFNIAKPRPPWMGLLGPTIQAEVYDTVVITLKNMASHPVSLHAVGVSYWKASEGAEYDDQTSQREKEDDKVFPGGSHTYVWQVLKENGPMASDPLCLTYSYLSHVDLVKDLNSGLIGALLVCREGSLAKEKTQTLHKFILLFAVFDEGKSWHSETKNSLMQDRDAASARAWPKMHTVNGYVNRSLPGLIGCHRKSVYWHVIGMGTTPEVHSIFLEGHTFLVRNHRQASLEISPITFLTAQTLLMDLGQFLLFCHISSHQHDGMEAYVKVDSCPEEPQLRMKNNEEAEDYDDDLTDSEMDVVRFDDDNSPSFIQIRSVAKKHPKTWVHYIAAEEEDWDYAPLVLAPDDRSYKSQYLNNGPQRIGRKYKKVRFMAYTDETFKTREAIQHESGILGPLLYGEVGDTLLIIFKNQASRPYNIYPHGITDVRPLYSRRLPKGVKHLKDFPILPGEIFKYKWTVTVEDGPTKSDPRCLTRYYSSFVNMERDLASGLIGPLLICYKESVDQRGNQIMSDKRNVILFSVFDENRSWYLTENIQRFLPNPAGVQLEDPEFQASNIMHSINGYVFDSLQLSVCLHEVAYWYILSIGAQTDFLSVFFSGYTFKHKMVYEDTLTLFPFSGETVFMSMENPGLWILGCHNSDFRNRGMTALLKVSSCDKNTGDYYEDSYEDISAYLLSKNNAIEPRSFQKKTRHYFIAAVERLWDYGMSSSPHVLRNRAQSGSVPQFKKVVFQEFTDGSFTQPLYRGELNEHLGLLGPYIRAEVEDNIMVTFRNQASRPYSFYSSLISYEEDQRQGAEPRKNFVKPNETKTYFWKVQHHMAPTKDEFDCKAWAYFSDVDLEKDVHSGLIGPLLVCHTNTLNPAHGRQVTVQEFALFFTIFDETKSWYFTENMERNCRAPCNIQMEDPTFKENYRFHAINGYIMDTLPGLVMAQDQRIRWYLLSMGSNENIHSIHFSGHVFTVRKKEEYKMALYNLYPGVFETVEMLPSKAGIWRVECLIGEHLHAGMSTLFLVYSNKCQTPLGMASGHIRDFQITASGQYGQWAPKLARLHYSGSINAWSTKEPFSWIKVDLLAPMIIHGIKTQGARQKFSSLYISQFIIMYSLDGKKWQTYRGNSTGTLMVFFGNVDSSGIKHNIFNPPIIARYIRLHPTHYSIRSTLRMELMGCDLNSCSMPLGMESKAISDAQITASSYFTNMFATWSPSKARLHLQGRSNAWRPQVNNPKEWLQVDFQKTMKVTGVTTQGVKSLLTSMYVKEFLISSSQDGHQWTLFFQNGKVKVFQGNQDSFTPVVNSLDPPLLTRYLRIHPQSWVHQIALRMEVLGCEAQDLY
The experiment is described as follows: functional cofactor affinity KD-app: fluorogenic FX activation (Xase) assay, FVIIIa titrated, PC/PS vesicles, saturating FX.

Experimental: Reactions were monitored in a SpectraMax fluorescence plate reader for 30 min at 37° C. A standard curve of free AMC served as the conversion factor for RFU to μM in the subsequent data analysis calculations using a dose range that covered 0 μM to 100 μM AMC.

B1: FIXa-R338E/T343R/R403E/E410N (enzyme)
chain 1: YNSGKLEEFVQGNLERECMEEKCSFEEAREVFENTERTTEFWKQYVDGDQCESNPCLNGGSCKDDINSYECWCPFGFEGKNCELDVTCNIKNGRCEQFCKNSADNKVVCSCTEGYRLAENQKSCEPAVPFPCGRVSVSQTSKLTR
chain 2: VVGGEDAKPGQFPWQVVLNGKVDAFCGGSIVNEKWIVTAAHCVETGVKITVVAGEHNIEETEHTEQKRNVIRIIPHHNYNAAINKYNHDIALLELDEPLVLNSYVTPICIADKEYTNIFLKFGSGYVSGWGRVFHKGRSALVLQYLRVPLVDRATCLESTKFRIYNNMFCAGFHEGGRDSCQGDSGGPHVTEVEGTSFLTGIISWGEECAMKGKYGIYTKVSEYVNWIKNKTKLT
notes: also called R170E/T175R/R233E/E240N (chymotrypsin numbering)
Turning to B1, the Kd is 29.4 nM.

B2: FIXa-Y155F/R338E/T343R/E410N (enzyme)
chain 1: YNSGKLEEFVQGNLERECMEEKCSFEEAREVFENTERTTEFWKQYVDGDQCESNPCLNGGSCKDDINSYECWCPFGFEGKNCELDVTCNIKNGRCEQFCKNSADNKVVCSCTEGYRLAENQKSCEPAVPFPCGRVSVSQTSKLTR
chain 2: VVGGEDAKPGQFPWQVVLNGKVDAFCGGSIVNEKWIVTAAHCVETGVKITVVAGEHNIEETEHTEQKRNVIRIIPHHNYNAAINKYNHDIALLELDEPLVLNSYVTPICIADKEYTNIFLKFGSGYVSGWGRVFHKGRSALVLQYLRVPLVDRATCLESTKFRIYNNMFCAGFHEGGRDSCQGDSGGPHVTEVEGTSFLTGIISWGEECAMKGKYGIYTKVSRYVNWIKNKTKLT
Take B2: the Kd is 8.5 nM.

B3: FIXa-Y155F/K228N/K247N/N249S/R318Y/R338E/T343R/R403E/E410N (enzyme)
chain 1: YNSGKLEEFVQGNLERECMEEKCSFEEAREVFENTERTTEFWKQYVDGDQCESNPCLNGGSCKDDINSYECWCPFGFEGKNCELDVTCNIKNGRCEQFCKNSADNKVVCSCTEGYRLAENQKSCEPAVPFPCGRVSVSQTSKLTR
chain 2: VVGGEDAKPGQFPWQVVLNGKVDAFCGGSIVNEKWIVTAAHCVETGVNITVVAGEHNIEETEHTEQNRSVIRIIPHHNYNAAINKYNHDIALLELDEPLVLNSYVTPICIADKEYTNIFLKFGSGYVSGWGRVFHKGYSALVLQYLRVPLVDRATCLESTKFRIYNNMFCAGFHEGGRDSCQGDSGGPHVTEVEGTSFLTGIISWGEECAMKGKYGIYTKVSEYVNWIKNKTKLT
On to B3, for which the Kd came to 37 nM.

B4: FIXa-Y155F/R338E/T343R/R403E (enzyme)
chain 1: YNSGKLEEFVQGNLERECMEEKCSFEEAREVFENTERTTEFWKQYVDGDQCESNPCLNGGSCKDDINSYECWCPFGFEGKNCELDVTCNIKNGRCEQFCKNSADNKVVCSCTEGYRLAENQKSCEPAVPFPCGRVSVSQTSKLTR
chain 2: VVGGEDAKPGQFPWQVVLNGKVDAFCGGSIVNEKWIVTAAHCVETGVKITVVAGEHNIEETEHTEQKRNVIRIIPHHNYNAAINKYNHDIALLELDEPLVLNSYVTPICIADKEYTNIFLKFGSGYVSGWGRVFHKGRSALVLQYLRVPLVDRATCLESTKFRIYNNMFCAGFHEGGRDSCQGDSGGPHVTEVEGTSFLTGIISWGEECAMKGKYGIYTKVSEYVNWIKEKTKLT
For B4, the Kd was found to be 72.1 nM.

B5: FIXa-Y155F/K247N/N249S/R318Y/R338E/T343R (enzyme)
chain 1: YNSGKLEEFVQGNLERECMEEKCSFEEAREVFENTERTTEFWKQYVDGDQCESNPCLNGGSCKDDINSYECWCPFGFEGKNCELDVTCNIKNGRCEQFCKNSADNKVVCSCTEGYRLAENQKSCEPAVPFPCGRVSVSQTSKLTR
chain 2: VVGGEDAKPGQFPWQVVLNGKVDAFCGGSIVNEKWIVTAAHCVETGVKITVVAGEHNIEETEHTEQNRSVIRIIPHHNYNAAINKYNHDIALLELDEPLVLNSYVTPICIADKEYTNIFLKFGSGYVSGWGRVFHKGYSALVLQYLRVPLVDRATCLESTKFRIYNNMFCAGFHEGGRDSCQGDSGGPHVTEVEGTSFLTGIISWGEECAMKGKYGIYTKVSRYVNWIKEKTKLT
As to B5, the Kd turned out to be 14 nM.
